Among the data in the RNAGym collection of RNA variant scans (doi:10.7554/elife.80360) are self-cleavage values, retold here.

Sequences and labels used below:
B1: CPEB3 Ribozyme (parent)
chain: GGGGGCCACAGCAGAAGCGUUCACGUCGCGGCCCCUGUCAGAUUCUGGUGAAUCUGCGAAUUCUGCUGU

This series covers variants of B1. The experiment in a line: self-cleavage, relative activity (ratio to wild type); higher = more cleavage; co-transcriptional.
As to GGGGGCCACAGCAGAAGCGUUCACGUCGCGGCCCCUGUCAGAUACUGGUGAAUCUGCGAAUUCUGCGGU [U44A U67G], the self-cleavage came to 0.984.
As for GGGGGCCACAGCAGAAGCGUUCACGUCGCGGCCCCUGUCAGAUACUGGUGAAUCUGCGAAUUCUGCCGU [U44A U67C], the figure is 0.973; as for GGGGGCCACAGCAGAAGCGUUCACGUCGCGGCCCCUGUCAGAUACUGGUGAAUCUGCGAAUUCUGCAGU [U44A U67A], 0.936.
In the case of GGGGGCCACAGCAGAAGCGUUCACGUCGCGGCCCCUGUCAGAUACUGGUGUAUCUGCGAAUUCUGCUGU [U44A A51U], the self-cleavage came out at 0.998.
In the case of GGGGGCCACAGCAGAAGCGUUCACGUCGCGGCCCCUGUCAGAUACUGGUGAAUCUGCGAAUUCUGCUGA [U44A U69A], the self-cleavage is 0.956.
With GGGGGCCACAGCAGAAGCGUUCACGUCGCGGCCCCUGUCAGAUACUGGUGAAUCUGCGAAUUCUGCUGC [U44A U69C] the figure was 1.05.
As for GGGGGCCACAGCAGAAGCGUUCACGUCGCGGCCCCUGUCAGAGUCUGGUGAAUCUGCGAAUUCUGCCGU [U43G U67C], the figure is 0.915; as for GGGGGCCACAGCAGAAGCGUUCACGUCGCGGCCCCUGUCAGAGUCUGGUGAAUCUGCGAAUUCUGCGGU [U43G U67G], 0.867.
As for GGGGGCCACAGCAGAAGCGUUCACGUCGCGGCCCCUGUCAGAGUCUGGUGAAUCUGCGAAUUCUGCAGU [U43G U67A], the figure is 0.79.
With GGGGGCCACAGCAGAAGCGUUCACGUCGCGGCCCCUGUCAGAGUCUGGUGAAUCUGCGAAUUCUGCUGG [U43G U69G], the self-cleavage came out at 0.97.
For GGGGGCCACAGCAGAAGCGUUCACGUCGCGGCCCCUGUCAGAGUCUGGUGAAUCUGCGAAUUCUUCUGU [U43G G65U], the self-cleavage was 0.352.
Regarding GGGGGCCACAGCAGAAGCGUUCACGUCGCGGCCCCUGUCAGAGUCUGGUGAAUCUGCGAAUUCUCCUGU [U43G G65C], the self-cleavage amounted to 0.432.
In the case of GGGGGCCACAGCAGAAGCGUUCACGUCGCGGCCCCUGUCAGAGUCUGGAGAAUCUGCGAAUUCUGCUGU [U43G U49A], the self-cleavage was found to be 0.963.
With GGGGGCCACAGCAGAAGCGUUCACGUCGCGGCCCCUGUCAGAGUCUGGCGAAUCUGCGAAUUCUGCUGU [U43G U49C] the figure was 0.815; with GGGGGCCACAGCAGAAGCGUUCACGUCGCGGCCCCUGUCAGAGUCUGGGGAAUCUGCGAAUUCUGCUGU [U43G U49G], 0.922.
In the case of GGGGGCCACAGCAGAAGCGUUCACGUCGCGGCCCCUGUCAGAUACUCGUGAAUCUGCGAAUUCUGCUGU [U44A G47C], the self-cleavage was found to be 0.93.
As for GGGGGCCACAGCAGAAGCGUUCACGUCGCGGCCCCUGUCAGAUACUGGUGAAUCUGCCAAUUCUGCUGU [U44A G58C], the figure is 1.01; as for GGGGGCCACAGCAGAAGCGUUCACGUCGCGGCCCCUGUCAGAGUCUGGUGAAUCUGCGAACUCUGCUGU [U43G U61C], 0.332.
As for GGGGGCCACAGCAGAAGCGUUCACGUCGCGGCCCCUGUCAGAGCCUGGUGAAUCUGCGAAUUCUGCUGU [U43G U44C], the figure is 0.936; as for GGGGGCCACAGCAGAAGCGUUCACGUCGCGGCCCCUGUCAGAGACUGGUGAAUCUGCGAAUUCUGCUGU [U43G U44A], 0.971; as for GGGGGCCACAGCAGAAGCGUUCACGUCGCGGCCCCUGUCAGAUACUGGUGAAUCUGCGACUUCUGCUGU [U44A A60C], 0.423.
With GGGGGCCACAGCAGAAGCGUUCACGUCGCGGCCCCUGUCAGAUACUGGUGAAUCUGCGAUUUCUGCUGU [U44A A60U] the figure was 0.353; with GGGGGCCACAGCAGAAGCGUUCACGUCGCGGCCCCUGUCAGAUACUGGUGAAUCUGCGAAUUCUGCUGU [U44A], 0.983; with GGGGGCCACAGCAGAAGCGUUCACGUCGCGGCCCCUGUCAGAGUCUGGUGAAUCUGCUAAUUCUGCUGU [U43G G58U], 0.946.
Take GGGGGCCACAGCAGAAGCGUUCACGUCGCGGCCCCUGUCAGAGUCUGGUGAAUCUGCCAAUUCUGCUGU [U43G G58C]: the self-cleavage came out at 0.959.
With GGGGGCCACAGCAGAAGCGUUCACGUCGCGGCCCCUGUCAGAUACUGGUGAAUCUGCGAAUUCAGCUGU [U44A U64A] the figure was 0.843.
As for GGGGGCCACAGCAGAAGCGUUCACGUCGCGGCCCCUGUCAGAUACUGGUGAAUCUGCGAAUUCGGCUGU [U44A U64G], the figure is 0.8.
Take GGGGGCCACAGCAGAAGCGUUCACGUCGCGGCCCCUGUCAGAUAUUGGUGAAUCUGCGAAUUCUGCUGU [U44A C45U]: the self-cleavage stood at 0.965.
For the variant GGGGGCCACAGCAGAAGCGUUCACGUCGCGGCCCCUGUCAGAUAGUGGUGAAUCUGCGAAUUCUGCUGU [U44A C45G], the self-cleavage is 0.983.
On to GGGGGCCACAGCAGAAGCGUUCACGUCGCGGCCCCUGUCAGAUACUGGUGAAUCUGGGAAUUCUGCUGU [U44A C57G], for which the self-cleavage came to 0.365.
With GGGGGCCACAGCAGAAGCGUUCACGUCGCGGCCCCUGUCAGAUACUGGUGAAUCUGUGAAUUCUGCUGU [U44A C57U], the self-cleavage was 0.397.
As for GGGGGCCACAGCAGAAGCGUUCACGUCGCGGCCCCUGUCAGAUACUGGUGAAUCUGAGAAUUCUGCUGU [U44A C57A], the figure is 0.383.
With GGGGGCCACAGCAGAAGCGUUCACGUCGCGGCCCCUGUCAGAUACUGGUGAAUGUGCGAAUUCUGCUGU [U44A C54G] the figure was 0.461; with GGGGGCCACAGCAGAAGCGUUCACGUCGCGGCCCCUGUCAGAUACUGGUGAAUAUGCGAAUUCUGCUGU [U44A C54A], 0.588.
With GGGGGCCACAGCAGAAGCGUUCACGUCGCGGCCCCUGUCAGAGUCUGGUGAAGCUGCGAAUUCUGCUGU [U43G U53G] the figure was 0.854; with GGGGGCCACAGCAGAAGCGUUCACGUCGCGGCCCCUGUCAGAGUCUGGUGAAACUGCGAAUUCUGCUGU [U43G U53A], 0.8.
In the case of GGGGGCCACAGCAGAAGCGUUCACGUCGCGGCCCCUGUCAGAUACUGAUGAAUCUGCGAAUUCUGCUGU [U44A G48A], the self-cleavage amounted to 0.953.
For GGGGGCCACAGCAGAAGCGUUCACGUCGCGGCCCCUGUCAGAGUCUGGUGAAUCUGCGAAUUCAGCUGU [U43G U64A], the self-cleavage was determined as 0.506.
With GGGGGCCACAGCAGAAGCGUUCACGUCGCGGCCCCUGUCAGAGUCUGGUGAAUCUGCGAAUUCCGCUGU [U43G U64C] the figure was 0.409.
